The target of the assay is wild-type Bacteroides fragilis glutamate decarboxylase (BfGADWT) (Bacteroides fragilis). As to the kind of experiment: SEC.

Among the data in publication PMC12013497 are stoichiometry N values, retold here.

Take “wild-type Bacteroides fragilis glutamate decarboxylase (BfGADWT) (enzyme)”: the stoichiometry N was 6.
